Literature values as cited in patent US12440573B2, “Antibody-conjugates for targeting of tumours expressing PTK7” (Synaffix B.V., priority 2022, dated 2025).

Legend:
[1] = test system: patient-derived, tumor xenograft preclinical models
[2] = test system: locally advanced/metastatic, PTK7-positive NSCLC, TNBC, and platinum-resistant OvCa; settings: previously treated patients, administered every 2 or 3 weeks

B1: PF-06647020: prior-art ADC: humanized anti-PTK7 antibody with auristatin microtubule inhibitor payload (Aur0101) (conjugate, chains of the INN, looked up)
VH: QVQLVQSGPEVKKPGASVKVSCKASGYTFTDYAVHWVRQAPGKRLEWIGVISTYNDYTYNNQDFKGRVTMTRDTSASTAYMELSRLRSEDTAVYYCARGNSYFYALDYWGQGTSVTVSS
VL: EIVLTQSPATLSLSPGERATLSCRASESVDSYGKSFMHWYQQKPGQAPRLLIYRASNLESGIPARFSGSGSGTDFTLTISSLEPEDFAVYYCQQSNEDPWTFGGGTKLEIK
modifications: Aur0101 auristatin payload
In the case of B1, the tumor regression [1] is given as “prolonged tumor regression”, the clinical activity [2] is given as “preliminary clinical activity” and the safety profile [2] is given as “tolerable safety profile”.
